Starred links: 1 amine or outer side, 2 acyl side, 3 side chain; linkers in the order of their positions; H or OH if unused. Non-standard residues stand in square brackets, D forms with d. Groups on a side chain read outwards from the residue. *: point of attachment. Butyryl(4-SO2NHCO(CH2)16Tz) = O=C(CCCCCCCCCCCCCCCCc1nnn[nH]1)NS(=O)(=O)CCCC(=O)*; C20 diacid = O=C(O)CCCCCCCCCCCCCCCCCCC(=O)*; C18 diacid = O=C(O)CCCCCCCCCCCCCCCCC(=O)*; γGlu = O=C(O)[C@H](CCC(=O)[*:2])N[*:1]; C14 diacid = O=C(O)CCCCCCCCCCCCC(=O)*; Desaminohistidyl = O=C(CCc1c[nH]cn1)*; Trx = NC[C@H]1CC[C@H](C(=O)O)CC1; AEEA = NCCOCCOCC(=O)O; Aib = CC(C)(N)C(=O)O
B1: Compound 0007 (peptide)
peptide: H[Aib]EGTFTSDVSSYLEGQAAK([AEEA-AEEA-γGlu-C18 diacid])EFIAWLVRGRGGGEASELSTAALGRLSAELHELATLPRTETGSGSP-NH2
B2: Compound 0026 (peptide)
peptide: H[Aib]EGTFTSDVSSYLEGQAAK([AEEA-AEEA-γGlu-C18 diacid])EFIAWLVRGRGQEPGQAPEASELSTAALGRLSAELHELATLPRTETGSGSP-NH2
B3: Compound 0124 (peptide)
peptide: [Desaminohistidyl][Aib]EGTFTSDVSSYLEEQAAREFIAWLVRGRK(Butyryl(4-SO2NHCO(CH2)16Tz))EASELSTAALGRLSAELHELATLPRTETGSGSP-NH2
B4: Compound 0125 (peptide)
peptide: H[Aib]EGTFTSDVSSYLEEQAARK(Butyryl(4-SO2NHCO(CH2)16Tz))FIAWLVRGRGEASELSTAALGRLSAELHELATLPRTETGSGSP-NH2
B5: Compound 0127 (peptide)
peptide: H[Aib]EGTFTSDVSSYLEEQAARK([AEEA-AEEA-γGlu-C18 diacid])FIAWLVRGK([AEEA-AEEA-γGlu-C18 diacid])GGEASELSTAALGRLSAELHELATLPRTETGSGSP-NH2
B6: Compound 0128 (peptide)
peptide: H[Aib]EGTFTSDVSSYLEEQAARK([AEEA-AEEA-γGlu-C18 diacid])FIEWLVRGK([AEEA-AEEA-γGlu-C18 diacid])GGEASELSTAALGRLSAELHELATLPRTETGSGSP-NH2
B7: Compound 0129 (peptide)
peptide: H[Aib]EGTFTSDVSSYLEEQAARK([AEEA-AEEA-γGlu-C18 diacid])FIEWLVRGRK([AEEA-AEEA-γGlu-C18 diacid])GGEASELSTAALGRLSAELHELATLPRTETGSGSP-NH2
B8: Compound 0131 (peptide)
peptide: H[Aib]EGTFTSDVSSYLEEQAARK([γGlu-C18 diacid])FIAWLVRGRK([γGlu-C18 diacid])EASELSTAALGRLSAELHELATLPRTETGSGSP-NH2
B9: Compound 0035 (peptide)
peptide: [Desaminohistidyl]AEGTFTSDVSSYLEEQAAREFIAWLVRGRK([AEEA-AEEA-γGlu-Trx-C20 diacid])EASELSTAALGRLSAELHELATLPRTETGSGSP-NH2
B10: Compound 0132 (peptide)
peptide: H[Aib]EGTFTSDVSSYLEEQAAREFIAWLVRGK([AEEA-AEEA-γGlu-C18 diacid])GGEASELSTAALGRLSAELHELATLPRTETGSGSP-NH2
B11: Compound 0141 (peptide)
peptide: H[Aib]EGTFTSDVSSYLEEQAAREFIAWLVRGRK([γGlu-C20 diacid])EASELSTAALGRLSAELHELATLPRTETGSGSP-NH2
B12: Compound 0142 (peptide)
peptide: [Desaminohistidyl][Aib]EGTFTSDVSSYLEEQAAREFIAWLVRGRK([γGlu-C20 diacid])EASELSTAALGRLSAELHELATLPRTETGSGSP-NH2
B13: Compound 0144 (peptide)
peptide: H[Aib]EGTFTSDVSSYLEEQAAREFIAWLVK([AEEA-AEEA-γGlu-C18 diacid])GRGGGGGEASELSTAALGRLSAELHELATLPRTETGSGSP-NH2
B14: Compound 0145 (peptide)
peptide: H[Aib]EGTFTSDVSSYLEEQAAREFIAWLVRGRGK(Butyryl(4-SO2NHCO(CH2)16Tz))GGGASELSTAALGRLSAELHELATLPRTETGSGSP-NH2
B15: Compound 0146 (peptide)
peptide: H[Aib]EGTFTSDVSSYLEEQAAREFIEWLVRGK(Butyryl(4-SO2NHCO(CH2)16Tz))GGGASELSTAALGRLSAELHELATLPRTETGSGSP-NH2
B16: Compound 0147 (peptide)
peptide: H[Aib]EGTFTSDVSSYLEEQAAREFIEWLVRGK(Butyryl(4-SO2NHCO(CH2)16Tz))ASELSTAALGRLSAELHELATLPRTETGSGSP-NH2
B17: Compound 0151 (peptide)
peptide: H[Aib]EGTFTSDVSSYLEGQAAREFIAWLVRGRK([AEEA-AEEA-γGlu-C18 diacid])GGGGEASELSTAALGRLSAELHELATLPRTETGSGSP-NH2
B18: Compound 0156 (peptide)
peptide: H[Aib]EGTFTSDVSSYLEGQAAK([AEEA-AEEA-γGlu-C18 diacid])EFIAWLVRGRGQAPGQEPEASELSTAALGRLSAELHELATLPRTETGSGSP-NH2
B19: Compound 0157 (peptide)
peptide: H[Aib]EGTFTSDVSSYLEGQAAK([AEEA-AEEA-γGlu-C20 diacid])EFIAWLVRGRGQAPGQEPEASELSTAALGRLSAELHELATLPRTETGSGSP-NH2
B20: Compound 0039 (peptide)
peptide: HGEGTFTSDVSSYLEEQAARK([AEEA-AEEA-γGlu-C14 diacid])FIEWLVRGK([AEEA-AEEA-γGlu-C14 diacid])GEASELSTAALGRLSAELHELATLPRTETGSGSP-NH2
B21: Compound 0636 (peptide)
peptide: H[Aib]EGTFTSDVSSYLEEQAARK([AEEA-AEEA-γGlu-γGlu-γGlu-C20 diacid])FIEWLVRGRQEAASELSTAALGRLSAELHQLATLPRTETGSGSP-NH2
B22: Compound 0106 (peptide)
peptide: H[Aib]EGTFTSDVSSYLEEQAARK([Ado-Ado-γGlu-C18 diacid])FIEWLVRGK([Ado-Ado-γGlu-C18 diacid])GEGQEPGGASELSTAALGRLSAELHELATLPRTETGSGSP-NH2

Molecular target: human GLP-1 receptor (human, UniProt P43220 24-463)
Assay: cell-based or functional assay

| Binder | Human GLP-1R potency [EC50 (pM)] [pM] |
| --- | --- |
| B1 | 13.3 |
| B2 | 8.8 |
| B3 | 27.9 |
| B4 | 8 |
| B5 | 7.1 |
| B6 | 9.7 |
| B7 | 1.2 |
| B8 | 16.1 |
| B9 | 16.7 |
| B10 | 3 |
| B11 | 43.3 |
| B12 | 88.2 |
| B13 | 7.1 |
| B14 | 11.9 |
| B15 | 25.7 |
| B16 | 36.8 |
| B17 | 10.4 |
| B18 | 22.6 |
| B19 | 28.7 |
| B20 | 34.8 |

Molecular target: T1, human amylin-3 (a) receptor (human, UniProt P30988 25-474; O60896 24-148)
T1 sequence (looked up) 1: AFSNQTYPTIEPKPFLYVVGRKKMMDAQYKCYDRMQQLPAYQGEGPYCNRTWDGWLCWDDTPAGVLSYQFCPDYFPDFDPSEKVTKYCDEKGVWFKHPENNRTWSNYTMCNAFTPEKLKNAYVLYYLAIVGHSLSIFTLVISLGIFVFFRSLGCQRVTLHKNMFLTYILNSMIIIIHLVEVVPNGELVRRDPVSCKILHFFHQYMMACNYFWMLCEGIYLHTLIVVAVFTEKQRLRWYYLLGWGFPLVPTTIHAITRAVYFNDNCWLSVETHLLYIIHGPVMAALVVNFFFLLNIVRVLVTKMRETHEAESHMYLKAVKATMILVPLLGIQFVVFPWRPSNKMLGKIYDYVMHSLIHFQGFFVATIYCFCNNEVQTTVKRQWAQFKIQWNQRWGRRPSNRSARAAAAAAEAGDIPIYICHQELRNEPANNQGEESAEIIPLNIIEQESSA
T1 sequence (looked up) 2: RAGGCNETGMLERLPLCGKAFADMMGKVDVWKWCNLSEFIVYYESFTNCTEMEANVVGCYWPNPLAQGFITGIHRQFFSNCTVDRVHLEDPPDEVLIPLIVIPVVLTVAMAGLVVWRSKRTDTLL
Assay: cell-based or functional assay

| Binder | Human AmyR3 potency [EC50 (pM)] [pM] |
| --- | --- |
| B1 | 9.4 |
| B2 | 14 |
| B3 | 24.4 |
| B4 | 12.2 |
| B5 | 63.9 |
| B6 | 110 |
| B7 | 23.5 |
| B8 | 14.5 |
| B9 | 16 |
| B10 | 34.9 |
| B11 | 13.2 |
| B12 | 15.4 |
| B13 | 16.8 |
| B14 | 16.5 |
| B15 | 14 |
| B16 | 33.7 |
| B17 | 9.5 |
| B18 | 22.6 |
| B19 | 18.4 |
| B20 | 59.5 |
| B21 | 8.5 |
| B22 | 28.4 |
